{"source": "paper doi:10.1101/2024.03.07.583918", "binders": {"B1": {"name": "NWETF pentapeptide (peptide)", "peptide": "NWETF"}, "B2": {"name": "GWEKF pentapeptide (peptide)", "peptide": "GWEKF"}, "B3": {"name": "GWTTF pentapeptide with substitution of G by D at position 1 (peptide)", "peptide": "DWTTF"}, "B4": {"name": "GWTTF pentapeptide (peptide)", "peptide": "GWTTF"}, "B5": {"name": "DWTSF pentapeptide (peptide)", "peptide": "DWTSF"}, "B6": {"name": "NWTTF pentapeptide (peptide)", "peptide": "NWTTF"}, "B7": {"name": "GWQRF pentapeptide (peptide)", "peptide": "GWQRF"}}, "data": [{"biological_target": "CheR of Pectobacterium atrosepticum SCRI1043 (Pectobacterium atrosepticum SCRI1043)", "assay": "ITC", "units": {"Kd": "µM", "fold decrease in affinity against GWTTF": "fold"}, "values": [{"binder": "B1", "Kd": 0.48}, {"binder": "B2", "Kd": 0.2}, {"binder": "B3", "fold decrease in affinity against GWTTF": 2.6}, {"binder": "B4", "Kd": 0.09}, {"binder": "B5", "Kd": 0.36}, {"binder": "B6", "Kd": 1}, {"binder": "B7", "Kd": 0.54}]}]}
